Target: T1, endogenous wild type TDP-43 of HEK293 cells (human, UniProt Q13148 1-414)
T1 construct: whole, on cells; Intracellular endogenous protein: nuclear in unstressed cells; also called endogenous, nuclear WT TDP-43; normal nuclear TDP-43
Assay: co-localization immunocytochemistry, intrabody expressed in HEK293 cells

T1 sequence (Q13148 whole entry): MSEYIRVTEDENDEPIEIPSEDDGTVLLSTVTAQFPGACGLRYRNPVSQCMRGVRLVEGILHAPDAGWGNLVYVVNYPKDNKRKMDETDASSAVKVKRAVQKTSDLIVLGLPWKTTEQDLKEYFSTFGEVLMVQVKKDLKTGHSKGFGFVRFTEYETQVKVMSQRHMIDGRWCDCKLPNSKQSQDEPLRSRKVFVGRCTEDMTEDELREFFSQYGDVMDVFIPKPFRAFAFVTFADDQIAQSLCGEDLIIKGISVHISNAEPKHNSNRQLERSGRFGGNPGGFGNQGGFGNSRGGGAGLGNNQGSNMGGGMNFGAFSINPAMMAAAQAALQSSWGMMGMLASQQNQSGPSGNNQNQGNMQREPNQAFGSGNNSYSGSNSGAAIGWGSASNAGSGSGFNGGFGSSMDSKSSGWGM

B1: YPTL-14H1-14K2 (scFv)
scFv: MQEQLEESGGDLVKPEGSLTLTCTASGFSFSSNYVMCWVRQAPGKGLEWVACIWFAGIVDTTYYATWAKGRFTISKTSSTTVTLQMTSLTAADTATYFCARNPVGSVNLWGQGTLVTVSSGGGGSGGGGSGGGGSVMTQTPSSKSVPVGGSVTINCQASESVYSNNRLSWYQQKPGQPPKLLIYYASTLESGVPSRFKGSGFGTHFTLTISGAQCDDAATYYCAGWRGARTDGVDFGGGTEVVVKDYKDDDDKRWRKSHSSSYTPLSGSTYPEGRH
binding result: no binding

B2: MYCL20H-14H1-14K2 (scFv)
scFv: MAIVMTQTPSSKSVPVGGSVTINCQASESVYSNNRLSWYQQKPGQPPKLLIYYASTLESGVPSRFKGSGFGTHFTLTISGAQCDDAATYYCAGWRGARTDGVDFGGGTEVVVKGSTGGGGSGKPGSGEGGGGSQEQLEESGGDLVKPEGSLTLTCTASGFSFSSNYVMCWVRQAPGKGLEWVACIWFAGIVDTTYYATWAKGRFTISKTSSTTVTLQMTSLTAADTATYFCARNPVGSVNLWGQGTLVTVSSGSGEQKLISEEDL
notes: Intrabody: VL-20 aa linker-VH-GSG-MYC tag
binding result: no binding

B3: YPTL-2F7 (scFv)
scFv: MDVKLVESGGGLVKLGGSLKLSCAASGFTFSSYYMSWVRQTPEKRLELVATINSNGGSTYYPDTVKGRITISRDNAKNTLQLQMSSLRSEDTALYYCVRQNYEGAYWGQGTLVTVSAGGGGSGGGGSGGGGSDVLMTQTPLSLPVTLGDQASISCRSSQSIVHSNGNTYLEWYLQKPGQSPKLLIYKVSNRFSGVPDRFSGSGSGTDFTLKISRVEAEDLGVYYCFQSSHVPWTFGGGTKLEIKDYKDDDDKRWRKSHSSSYTPLSGSTYPEGRH
binding result: no binding

— patent US20230174630A1 (UNIVERSITY OF BRITISH COLUMBIA, published 2023)
